In article PMC6319338, “Insight into the PTEN – p85α interaction and lipid binding properties of the p85α BH domain” (Oncotarget, 2018):

Molecular target: T1, purified p85α wild type (cleaved from GST) (bovine, UniProt P23727 1-724)
T1 construct: p85α (PI3K regulatory subunit alpha), bovine, residues 1-724; also called wild type p85α; source: E. coli, expressed as GST fusion, cleaved from GST, purified; not shown: GST, N-terminal, cleaved
Experiment: pull-down; GST-PTEN (wild type or mutant; 5 μg) immobilized on glutathione Sepharose beads; precleared purified p85α cleaved from GST (5 μg in 1% milk, 500 μl PBS pH 7.3); 30 minutes at room temperature; 5 washes; anti-p85α immunoblot, quantified with Odyssey software
Details: both partners purified

binding result: binds
B1: GST-PTEN wild type (1–403) (natural protein)
chain: not shown
notes: PTEN, human, residues 1-403 (74 kDa as GST fusion); vector pGEX6P1; The activity assay used His6-PTEN instead; also called wild type PTEN; source: E. coli, GST fusion immobilized on glutathione Sepharose beads
